Patent publication US6365711 (Harvard, dated 2002)

Target: T1, Myc-tagged Δ473-534 (Xenopus, UniProt P70056 61-472)
T1 construct: also called deletion of an additional 33 C-terminal amino acids
T1 sequence: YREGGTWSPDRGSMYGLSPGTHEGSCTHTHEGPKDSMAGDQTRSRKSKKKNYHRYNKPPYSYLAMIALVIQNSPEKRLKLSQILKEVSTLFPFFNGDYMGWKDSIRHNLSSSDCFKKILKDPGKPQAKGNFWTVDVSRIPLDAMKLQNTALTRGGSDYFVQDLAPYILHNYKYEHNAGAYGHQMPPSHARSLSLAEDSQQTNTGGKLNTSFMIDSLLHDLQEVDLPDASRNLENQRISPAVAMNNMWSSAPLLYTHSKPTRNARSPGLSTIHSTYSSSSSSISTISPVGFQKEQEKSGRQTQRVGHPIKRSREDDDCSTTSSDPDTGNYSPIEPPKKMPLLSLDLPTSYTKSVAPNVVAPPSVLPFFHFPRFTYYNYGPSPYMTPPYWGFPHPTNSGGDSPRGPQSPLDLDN
Assay: FAST-1 deletion mutant co-expressed with tagged Smad in Xenopus embryos

B1: Myc-tagged Smad2 (other, not shown: small tags and cut ends)
chain: MSSILPFTPPVVKRLLGWKKSASGTTGAGGDEQNGQEEKWCEKAVKSLVKKLKKTGQLDELEKAITTQNCNTKCVTIPSTCSEIWGLSTANTIDQWDTTGLYSFSEQTRSLDGRLQVSHRKGLPHVIYCRLWRWPDLHSHHELKAIENCEYAFNLKKDEVCVNPYHYQRVETPVLPPVLVPRHTEILTELPPLDDYTHSIPENTNFPAGIEPQSNYIPETPPPGYISEDGETSDQQLNQSMDTGSPAELSPSTLSPVNHNLDLQPVTYSEPAFWCSIAYYELNQRVGETFHASQPSLTVDGFTDPSNSERFCLGLLSNVNRNATVEMTRRHIGRGVRLYYIGGEVFAECLSDSAIFVQSPNCNQRYGWHPATVCKIPPGCNLKIFNNQEFAALLAQSVNQGFEAVYQLTRMCTIRMSFVKGWGAEYRRQTVTSTPCWIELHLNGPLQWLDKVLTQMGSPSVRCSSMS
notes: Expressed from injected RNA in Xenopus embryos; also called Myc-Smad2
- binding result: no binding
